Assay results as given in patent US6797522B1, “Synthetic receptors” (The Trustees of Columbia University in the City of New York, priority 1996, dated 2004).

How the values were obtained:
Met Enkephalin = molecular target: T1, Met Enkephalin (Homo sapiens, UniProt P01210); assay: Color screening assay of bead-bound receptor libraries with Disperse Red-labelled substrate; format: binding; details: Table 5, label = AA1-AA5; for Kd: read-out: KD-MAX; for BOUND: percentage of library beads bound
T1 construct: composed of two pentapeptides Tyr-Gly-Gly-Phe-LeuOH and Tyr-Gly-Gly-Phe-MetOH; purchased Bachem, Inc
Experimental: (§1) The synthetic receptor library is then assayed to find those members of the library which have the desired interaction with the labeled substrate. In the case where the desired interaction is binding to the substrate, the synthetic receptor library is mixed with a solution of the labeled substrate and those library members that bind to the labeled substrate are selected. This procedure is particularly simple when the synthetic receptor library members are bound to a solid support as shown in Scheme 2. In that case, solid support particles having receptors which bind the labeled substrate accumulate color or fluorescence or radioactivity (depending on the nature of the label used). Depending on the concentration of the labeled substrate used, the assay can be adjusted to detect binding of any desired strength: for example, if the amount of labeled substrate in the presence of the receptor library is adjusted to give a 100 μM concentration of free (unbound) labeled substrate, then assay will only detect template-substrate binding with association constants (k) of (100 μM)^−1 or greater.
(§2) A color assay method was developed for screening receptor library beads. The color dye used is Disperse Red 1 (available from Aldrich Inc.), a neutral diazo dye whose λmax is at 502 nm. Red color in various organic solvents is visible at concentration as low as 100 μM.
(§3) After receptor beads are treated with a substrate which has a color dye attached on it, the bead binding the substrate is stained and can be easily identified in a background of many colorless beads. The stained bead is the removed from the library by a microsyringe, and subjected to decode to identify its structure. The decoding process involves three operations: a) photolysis of the beads, b) silylation of liberated alcohols, c) injection into GC-EC machine. Once identified, the receptor is then resynthesized on large quantities of beads for confirmatory binding studies. […] From this spectrum, the structure of the receptor is identified as C3—OGLY-leu-phe-Ac, C7—OGLY-ala-Lys-Ac.
(§4) Some additional binding studies for Peptidosteroidal receptors with beta-Casomorphinamide and Des-Tyr Leu Enkahphalin, are shown in the following table 5 and are compared to the Leu Enkaphalin and Met Enkaphalin. [drawing 47]

Leu Enkephalin = molecular target: T2, Leu Enkephalin (Homo sapiens, UniProt P01210); assay: as above; format: binding; details: Table 5, label = AA1-AA5
T2 construct: composed of two pentapeptides Tyr-Gly-Gly-Phe-LeuOH and Tyr-Gly-Gly-Phe-MetOH; purchased Bachem, Inc
Experimental: as §1, §2, §3, §4

Substance “PRO-THR-LYS-PHE-ALA (PTKFA; printed: PRO-THR-LYS-PHE-ALA)” has a Kd (Met Enkephalin) of 75 µM and a BOUND (Met Enkephalin) of 0.8%.
With “GLY-PHE-PRO-PRO-LEU (GFPPL; printed: GLY-PHE-PRO-PRO-LEU)” the Kd (Met Enkephalin) was 85 µM and the BOUND (Met Enkephalin) was 0.5%.
“GLY-ASP-PRO-PRO-LEU (GDPPL; printed: GLY-ASP-PRO-PRO-LEU)” gave a Kd (Leu Enkephalin; read-out: KD-MAX) of 81 µM and a BOUND (Leu Enkephalin; percentage of library beads bound) of 0.7%.
